# Measured values from patent US20130302347A1 (Genentech, published 2013).
# T1: Mouse TMEM149 on the cell surface (transfected 293T cells; mouse T cells) (mouse, UniProt Q3U4N7 23-345)
# T1 construct: also called mTMEM149; murine TMEM149
# T1 sequence: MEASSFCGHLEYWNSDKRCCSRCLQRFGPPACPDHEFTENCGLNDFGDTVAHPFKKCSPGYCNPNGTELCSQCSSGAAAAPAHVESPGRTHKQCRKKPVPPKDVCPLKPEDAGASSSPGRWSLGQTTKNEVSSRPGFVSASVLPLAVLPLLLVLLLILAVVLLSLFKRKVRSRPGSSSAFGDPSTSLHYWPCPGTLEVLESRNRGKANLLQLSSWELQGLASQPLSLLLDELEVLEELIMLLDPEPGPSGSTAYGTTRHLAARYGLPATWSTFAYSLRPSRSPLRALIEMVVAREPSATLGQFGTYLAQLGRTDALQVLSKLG
# T2: DR4 on transfected 293T cells (UniProt O00220 24-468, limits assumed)
# T2 construct: whole, on cells
# T2 sequence (looked up): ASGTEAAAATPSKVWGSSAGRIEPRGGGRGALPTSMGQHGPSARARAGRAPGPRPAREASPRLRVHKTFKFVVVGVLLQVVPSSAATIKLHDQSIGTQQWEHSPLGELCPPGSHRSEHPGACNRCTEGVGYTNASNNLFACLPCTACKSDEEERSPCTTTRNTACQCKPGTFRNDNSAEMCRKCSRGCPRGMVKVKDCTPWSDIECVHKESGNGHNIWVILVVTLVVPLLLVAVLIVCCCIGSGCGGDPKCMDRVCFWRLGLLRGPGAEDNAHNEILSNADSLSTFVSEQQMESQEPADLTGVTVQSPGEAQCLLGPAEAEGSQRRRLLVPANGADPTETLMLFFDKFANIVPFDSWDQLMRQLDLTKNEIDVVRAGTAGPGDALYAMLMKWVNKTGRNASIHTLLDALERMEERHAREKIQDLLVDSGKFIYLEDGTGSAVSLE
# T3: nerve growth factor receptor (NGFR) on transfected 293T cells (UniProt P08138 29-427, limits assumed)
# T3 construct: whole, on cells
# T3 sequence (looked up): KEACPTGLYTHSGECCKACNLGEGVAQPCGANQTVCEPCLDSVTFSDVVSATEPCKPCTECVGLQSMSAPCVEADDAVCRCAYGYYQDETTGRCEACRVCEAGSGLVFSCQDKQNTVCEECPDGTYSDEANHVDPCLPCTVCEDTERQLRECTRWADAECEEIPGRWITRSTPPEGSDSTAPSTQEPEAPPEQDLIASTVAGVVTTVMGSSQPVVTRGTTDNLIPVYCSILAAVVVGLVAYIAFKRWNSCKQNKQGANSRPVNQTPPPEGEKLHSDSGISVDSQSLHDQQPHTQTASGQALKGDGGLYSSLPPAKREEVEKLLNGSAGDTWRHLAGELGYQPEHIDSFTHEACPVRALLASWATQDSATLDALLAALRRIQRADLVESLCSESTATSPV
# T4: mTMEM149-Fc (mouse TMEM149 extracellular domain with C-terminal human IgG1 Fc) (mouse; human, UniProt Q3U4N7 21-163)
# T4 construct: Only the predicted extracellular domain, without the transmembrane domain, was used; the signal peptide is residues 1-22; not shown: human IgG1 Fc, C-terminal
# T4 sequence: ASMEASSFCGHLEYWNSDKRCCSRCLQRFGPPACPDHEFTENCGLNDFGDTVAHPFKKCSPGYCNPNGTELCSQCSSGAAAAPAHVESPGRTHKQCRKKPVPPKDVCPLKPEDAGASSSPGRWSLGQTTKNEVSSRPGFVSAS
# Columns and labels:
# [1] = target: T1, Mouse TMEM149 on the cell surface …; test: radioligand competition assay; 125I-FLAG-mIGFL against unlabelled ligand on 293T cells expressing mouse TMEM149
# Method: (§1) Reference is made to Example 11.
# (§2) To determine the affinity of IGFL with TMEM149, ligands were iodinated with ¹²⁵I using the lactoperoxidase method and free ¹²⁵I-Na was removed from the labeled protein by gel filtration using a NAP-5 column. 50 μL competition reaction mixtures containing a fixed concentration of iodinated ligand and decreasing concentrations of serially diluted, unlabeled ligand were placed into 96-well plates in triplicate. To each well, HEK293T cells stably expressing human or mouse TMEM149 were added at a density of 100,000 cells in 0.2 mL of binding buffer (Dulbecco's Modified Eagle Medium with 1% bovine serum albumin, 50 mM HEPES pH 7.2 and 2 mM sodium azide). The final concentration of the iodinated ligand with cells in each competition reaction was 100 pM (100,000 cpms per 0.25 mL). The final concentration of the unlabeled ligand with cells in the competition reaction varied, starting at 500 nM and then decreasing by […] dilution for ten concentrations, and included a zero-added, buffer-only sample. […] The filters were counted on a Wallac Wizard 1470 gamma counter (PerkinElmer Life and Analytical Sciences Inc.; Wellesley, Mass.). The binding data was evaluated using NewLigand software (Genentech), which uses the fitting algorithm of Munson and Robard to determine the binding affinity of the antibody (Munson, P. J., and D. Rodbard. 1980.
# [2] = target: T2, DR4 on transfected 293T cells; test: flow cytometry of transfected 293T cells, FLAG-mIGFL detected with fluorescent anti-FLAG
# [3] = target: T3, nerve growth factor receptor (NGFR) on …; test: as above
# [4] = target: T1, Mouse TMEM149 on the cell surface …; test: radioligand competition: 125I-FLAG-mIGFL (100 pM) on 293T cells expressing murine TMEM149, unlabelled FLAG-mIGFL varied
# Method: as §1, §2
# [5] = target: T4, mTMEM149-Fc (mouse TMEM149 …); test: SPR, mTMEM149-Fc captured on the chip
# Method: Surface plasmon resonance (SPR) was run on a BiaCore 3000 (GE healthcare, Piscataway, N.J.) at 25° C. using anti-human IgG F(ab′)₂ (Jackson Immunoresearch, West Grove, Pa.) amine-coupled to BiaCore CM5 sensor chips. For kinetic analysis of protein interactions, Fc-fusion proteins at 25 μg/ml were first captured onto sensor chips by injecting them for 3 min at 5 μl/min. Then, test proteins diluted to their indicated concentrations in HBS-P buffer (0.01 M Hepes, pH 7.4 0.15 M NaCl 0.005% Surfactant P20) were injected for 3 min at 30 μl/min. Dissociation in HBS-P buffer alone was then measured at a flow rate of […]. Sensor chips surfaces were regenerated by injecting 10 mM glycine pH 1.5 for 30 s after each cycle. Kinetic parameters were determined by fitting the data to a 1:1 Langmuir model using the Biacore 3000 evaluation software (GE Healthcare).
binder,measurement,setting,value
"FLAG-mIGFL (recombinant mouse IGFL with N-terminal FLAG epitope tag) (ligand, not shown: small tags and cut ends, also called mIGFL-FLAG; mIGFL1) RKISTFSGPGSWPCNPKCDGRTYNPSEECCVHDTILPFKRINLCGPSCTYRPCFELCCPESYSPKKKFIVKLKVHGERSHCSSSPISRNCKSNKIFHGEDIEDNQLSLRKKSGDQP",Kd,[1],0.73 nM
same,binding result,[2],no binding
same,binding result,[3],no binding
same,IC50 (read off the curve),[4],~0.8 nM
same,Kd,[5],0.15 nM
